Assay results: patent publication US6855270B2, “Nanoscintillation systems for aqueous-based liquid scintillation counting” (The University of Kentucky Research Foundation, priority 2001, dated 2005)
Blank lines part the entries; values can stand above or below the molecule they belong to.

Tests used:
[1] = particle / droplet size by photon correlation spectroscopy (Coulter N4 Plus); assay type: physicochemical
Procedure: To determine the existence of an oil-in-water microemulsion window for the microemulsion precursor, exactly two (2) milligrams of emulsifying wax were weighed accurately into ten separate 7-mL glass vials and melted at 50° C. on a temperature calibrated magnetic hot plate. Water (0.2 μm filtered) was then added (750-1000 μL) to form a homogeneous milky slurry in the stirring water at 50° C. To form the microemulsion precursor, the surfactant polyoxy 20 stearyl ether (100 mM) in water was added (0-250 μL) so that the final surfactant concentration ranged from 0 mM to 25 mM in the ten vials. The microemulsion precursor was then removed from heat (52-54° C.) and allowed to cool to 25° C. while stirring. […] Thus, an apparent microemulsion window was defined. One hundred (100) μL of each cooled system was taken and diluted with 900 μL water. The particle size of the diluted solid nanoparticles was determined using a Coulter N4 Plus Sub-Micron Particle Sizer at 20° C. by scattering light at 90° for 120 seconds. The particle sizes of systems with no surfactant added could not be determined since the systems contained precipitates that were greater than 3000 nm in diameter. […] To determine if the measured droplet sizes in either the microemulsion nanotemplate or the cured solid nanoparticles were due to the presence of surfactant micelles, samples were made as described above with no emulsifying wax and with final surfactant concentrations ranging from 0 mM to 100 mM in water. […] It is likely that the relatively heterogeneous nature of the polymeric surfactant makes the determination of its CMC difficult using conventional techniques. Photon correlation spectroscopy, using a Coulter N4 Plus Submicron Particle Sizer, was used to determine the existence and the size of the surfactant micelles.
Preparation of polyoxyethylene 2 stearyl ether nanoparticles. Three separate samples of polyoxyethylene 2 stearyl ether nanoparticles were engineered using the following process. Polyoxyethylene 2 stearyl ether (2 mg) was melted at 50-55° C. and dispersed in 970 microliters of water at the same temperature. Thirty microliters of solution of Tween 80 (10% v/v in water) was added to produce a clear oil-in-water microemulsion at approximately 55° C. The oil droplet size of liquid polyoxyethylene 2 stearyl ether was measured by photon correlation spectroscopy to be 22.2±1.8 nanometers at approximately 55° C. Polyoxyethylene 2 stearyl ether nanoparticles were cured by three different methods as follows: Method A) cooling of the undiluted oil-in-water microemulsion at 55° C. to room temperature while stirring, Method B) cooling of the oil-in-water microemulsion at 55° C. by placing undiluted in a refrigerator at 4° C., and Method C) diluting (1/10) the oil-in-water microemulsion at 55° C. with water at 4° C. […] Further, Method A illustrated a key advantage of simply allowing the oil-in-water microemulsion to cool to room temperature to form useful solid nanoparticles. This method allows for rapid, reproducible, and cost-effective method to engineer useful nanoparticles.
Preparation of Emulsifying Wax nanoparticles. Three separate samples of emulsifying wax nanoparticles were engineered using the following process. Emulsifying wax (2 mg) was melted at 50-55° C. and dispersed in 970 microliters of water at the same temperature. […] The oil droplet size of liquid emulsifying wax was measured by photon correlation spectroscopy to be 24.5±0.4 nanometers at approximately 55° C. […]

[2] = cited from earlier work
[3] = ASF-pal alone in water, 1340 μg/mL

Molecule: ASF-pal: Asialofetuin derivatized with about 12 palmitate arms per molecule; ligand
effect of added ASF-pal on particle size of cured solid nanoparticles ([1]; 200 μg nanoparticles per 1 mL): only a small effect | size of micelles formed ([1]; ASF-pal alone in water, 67 μg/mL): 3-15 nm | size of larger aggregates formed [1, 3]: 40-300 nm | size of micelles formed [1, 3]: 3-10 nm

diameter of nanoparticles entrapping GdAcAc [1]: about 50 nanometers
Molecule: CC(=O)C=C(C)[O-].CC(=O)C=C(C)[O-].CC(=O)C=C(C)[O-].[Gd+3] [GdAcAc, Gadolinium acetylacetonate]

Molecule: c1ccc(-c2cnc(-c3ccccc3)o2)cc1 [PPO, 2,5-diphenyloxazole]
classification of water solubility [2]: water-insoluble
